Results on 27 molecules are retold here after publication PMC10786891, “Massively parallel profiling of RNA-targeting CRISPR-Cas13d”.

The Kd is the concentration at which binding is half-saturated. A higher Kd goes with a looser complex.

T1: EsCas13d, nuclease-dead (Eubacterium siraeum, UniProt B0MS50, R295A;H300A;R849A;H854A)
T1 sequence: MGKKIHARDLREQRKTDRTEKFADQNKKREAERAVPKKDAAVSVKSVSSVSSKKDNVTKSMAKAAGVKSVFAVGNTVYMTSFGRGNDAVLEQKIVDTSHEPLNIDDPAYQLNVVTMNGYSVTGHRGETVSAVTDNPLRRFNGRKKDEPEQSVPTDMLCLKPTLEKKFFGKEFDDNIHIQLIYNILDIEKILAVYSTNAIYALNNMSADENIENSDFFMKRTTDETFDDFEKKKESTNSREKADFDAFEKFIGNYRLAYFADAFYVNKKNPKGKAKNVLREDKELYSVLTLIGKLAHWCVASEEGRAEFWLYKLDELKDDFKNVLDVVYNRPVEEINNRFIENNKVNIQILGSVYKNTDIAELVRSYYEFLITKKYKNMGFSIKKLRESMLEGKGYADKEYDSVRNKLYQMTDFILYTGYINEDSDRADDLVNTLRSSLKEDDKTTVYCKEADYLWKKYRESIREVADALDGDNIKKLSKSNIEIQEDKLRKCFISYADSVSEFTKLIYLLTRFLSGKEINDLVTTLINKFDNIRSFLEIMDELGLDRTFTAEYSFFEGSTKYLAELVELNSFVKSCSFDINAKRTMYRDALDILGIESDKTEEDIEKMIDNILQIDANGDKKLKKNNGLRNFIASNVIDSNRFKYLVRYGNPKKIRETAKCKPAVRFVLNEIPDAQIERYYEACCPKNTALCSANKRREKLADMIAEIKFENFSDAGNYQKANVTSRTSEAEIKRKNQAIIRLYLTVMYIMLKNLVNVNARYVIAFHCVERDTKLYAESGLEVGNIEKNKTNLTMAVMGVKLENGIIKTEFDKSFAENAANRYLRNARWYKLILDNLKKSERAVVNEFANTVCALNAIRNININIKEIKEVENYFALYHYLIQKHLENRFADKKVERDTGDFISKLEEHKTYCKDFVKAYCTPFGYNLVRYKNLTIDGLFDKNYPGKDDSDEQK

B1: target 1 insA 3' of 15,insG 3' of 2 (mixed)
RNA 1: CACCCGUGCAAAAAUGCAGGGGUCUAAAACUGAGCGGAUAACCUCUCUAUGG
RNA 2: GGGAAUGGAUCCACAUCUACGAAUUCGUACCAUAGAGAAGGUUAUCCGCUCGACCGAGAUCGGAAGAGCACACGU
B2: target 1 insA 3' of 6,insG 3' of 2 (mixed)
RNA 1: CACCCGUGCAAAAAUGCAGGGGUCUAAAACUGAGCGGAUAACCUCUCUAUGG
RNA 2: GGGAAUGGAUCCACAUCUACGAAUUCGUACCAUAGAGAGGUUAUCCAGCUCGACCGAGAUCGGAAGAGCACACGU
B3: target 1 insG 3' of 21,insU 3' of 21 (mixed)
RNA 1: CACCCGUGCAAAAAUGCAGGGGUCUAAAACUGAGCGGAUAACCUCUCUAUGG
RNA 2: GGGAAUGGAUCCACAUCUACGAAUUCGUACCGUAUAGAGAGGUUAUCCGCUCACCGAGAUCGGAAGAGCACACGU
B4: target 1 insA 3' of 11,insG 3' of 4 (mixed)
RNA 1: CACCCGUGCAAAAAUGCAGGGGUCUAAAACUGAGCGGAUAACCUCUCUAUGG
RNA 2: GGGAAUGGAUCCACAUCUACGAAUUCGUACCAUAGAGAGGUAUAUCCGCGUCACCGAGAUCGGAAGAGCACACGU
B5: target 1 G5A,U11A (mixed)
RNA 1: CACCCGUGCAAAAAUGCAGGGGUCUAAAACUGAGCGGAUAACCUCUCUAUGG
RNA 2: GGGAAUGGAUCCACAUCUACGAAUUCGUACCAUAGAGAGGAUAUCCACUCACCGAGAUCGGAAGAGCACACGU
B6: target 1 insU 3' of 22,insA 3' of 21 (mixed)
RNA 1: CACCCGUGCAAAAAUGCAGGGGUCUAAAACUGAGCGGAUAACCUCUCUAUGG
RNA 2: GGGAAUGGAUCCACAUCUACGAAUUCGUACUCAAUAGAGAGGUUAUCCGCUCACCGAGAUCGGAAGAGCACACGU
B7: target 1 insC 3' of 5,insA 3' of 4 (mixed)
RNA 1: CACCCGUGCAAAAAUGCAGGGGUCUAAAACUGAGCGGAUAACCUCUCUAUGG
RNA 2: GGGAAUGGAUCCACAUCUACGAAUUCGUACCAUAGAGAGGUUAUCCGCCAUCACCGAGAUCGGAAGAGCACACGU
B8: target 1 insU 3' of 14,insC 3' of 8 (mixed)
RNA 1: CACCCGUGCAAAAAUGCAGGGGUCUAAAACUGAGCGGAUAACCUCUCUAUGG
RNA 2: GGGAAUGGAUCCACAUCUACGAAUUCGUACCAUAGAGAUGGUUAUCCCGCUCACCGAGAUCGGAAGAGCACACGU
B9: target 1 insA 3' of 11,insG 3' of 10 (mixed)
RNA 1: CACCCGUGCAAAAAUGCAGGGGUCUAAAACUGAGCGGAUAACCUCUCUAUGG
RNA 2: GGGAAUGGAUCCACAUCUACGAAUUCGUACCAUAGAGAGGUAUGAUCCGCUCACCGAGAUCGGAAGAGCACACGU
B10: target 1 insG 3' of 4,insC 3' of 3 (mixed)
RNA 1: CACCCGUGCAAAAAUGCAGGGGUCUAAAACUGAGCGGAUAACCUCUCUAUGG
RNA 2: GGGAAUGGAUCCACAUCUACGAAUUCGUACCAUAGAGAGGUUAUCCGCGUCCACCGAGAUCGGAAGAGCACACGU
B11: target 1 A1C,U11G (mixed)
RNA 1: CACCCGUGCAAAAAUGCAGGGGUCUAAAACUGAGCGGAUAACCUCUCUAUGG
RNA 2: GGGAAUGGAUCCACAUCUACGAAUUCGUACCAUAGAGAGGGUAUCCGCUCCCCGAGAUCGGAAGAGCACACGU
B12: target 1 insC 3' of 9 (mixed)
RNA 1: CACCCGUGCAAAAAUGCAGGGGUCUAAAACUGAGCGGAUAACCUCUCUAUGG
RNA 2: GGGAAUGGAUCCACAUCUACGAAUUCGUACCAUAGAGAGGUUACUCCGCUCACCGAGAUCGGAAGAGCACACGU
B13: target 1 insA 3' of 11,insC 3' of 11 (mixed)
RNA 1: CACCCGUGCAAAAAUGCAGGGGUCUAAAACUGAGCGGAUAACCUCUCUAUGG
RNA 2: GGGAAUGGAUCCACAUCUACGAAUUCGUACCAUAGAGAGGUACUAUCCGCUCACCGAGAUCGGAAGAGCACACGU
B14: target 1 insC 3' of 14,insU 3' of 2 (mixed)
RNA 1: CACCCGUGCAAAAAUGCAGGGGUCUAAAACUGAGCGGAUAACCUCUCUAUGG
RNA 2: GGGAAUGGAUCCACAUCUACGAAUUCGUACCAUAGAGACGGUUAUCCGCUCUACCGAGAUCGGAAGAGCACACGU
B15: target 1 insG 3' of 7,insA 3' of 7 (mixed)
RNA 1: CACCCGUGCAAAAAUGCAGGGGUCUAAAACUGAGCGGAUAACCUCUCUAUGG
RNA 2: GGGAAUGGAUCCACAUCUACGAAUUCGUACCAUAGAGAGGUUAUCGACGCUCACCGAGAUCGGAAGAGCACACGU
B16: target 1 insU 3' of 17,insG 3' of 6 (mixed)
RNA 1: CACCCGUGCAAAAAUGCAGGGGUCUAAAACUGAGCGGAUAACCUCUCUAUGG
RNA 2: GGGAAUGGAUCCACAUCUACGAAUUCGUACCAUAGUAGAGGUUAUCCGGCUCACCGAGAUCGGAAGAGCACACGU
B17: target 1 insG 3' of 22,insC 3' of 9 (mixed)
RNA 1: CACCCGUGCAAAAAUGCAGGGGUCUAAAACUGAGCGGAUAACCUCUCUAUGG
RNA 2: GGGAAUGGAUCCACAUCUACGAAUUCGUACGCAUAGAGAGGUUACUCCGCUCACCGAGAUCGGAAGAGCACACGU
B18: target 1 insC 3' of 20,insC 3' of 16 (mixed)
RNA 1: CACCCGUGCAAAAAUGCAGGGGUCUAAAACUGAGCGGAUAACCUCUCUAUGG
RNA 2: GGGAAUGGAUCCACAUCUACGAAUUCGUACCACUAGACGAGGUUAUCCGCUCACCGAGAUCGGAAGAGCACACGU
B19: target 1 insA 3' of 17,insU 3' of 17 (mixed)
RNA 1: CACCCGUGCAAAAAUGCAGGGGUCUAAAACUGAGCGGAUAACCUCUCUAUGG
RNA 2: GGGAAUGGAUCCACAUCUACGAAUUCGUACCAUAGAUAGAGGUUAUCCGCUCACCGAGAUCGGAAGAGCACACGU
B20: target 1 A9U,U11G (mixed)
RNA 1: CACCCGUGCAAAAAUGCAGGGGUCUAAAACUGAGCGGAUAACCUCUCUAUGG
RNA 2: GGGAAUGGAUCCACAUCUACGAAUUCGUACCAUAGAGAGGGUUUCCGCUCACCGAGAUCGGAAGAGCACACGU
B21: target 1 G5A,A9C (mixed)
RNA 1: CACCCGUGCAAAAAUGCAGGGGUCUAAAACUGAGCGGAUAACCUCUCUAUGG
RNA 2: GGGAAUGGAUCCACAUCUACGAAUUCGUACCAUAGAGAGGUUCUCCACUCACCGAGAUCGGAAGAGCACACGU
B22: target 1 insA 3' of 19,insC 3' of 18 (mixed)
RNA 1: CACCCGUGCAAAAAUGCAGGGGUCUAAAACUGAGCGGAUAACCUCUCUAUGG
RNA 2: GGGAAUGGAUCCACAUCUACGAAUUCGUACCAUAACGAGAGGUUAUCCGCUCACCGAGAUCGGAAGAGCACACGU
B23: target 1 insC 3' of 20,insG 3' of 10 (mixed)
RNA 1: CACCCGUGCAAAAAUGCAGGGGUCUAAAACUGAGCGGAUAACCUCUCUAUGG
RNA 2: GGGAAUGGAUCCACAUCUACGAAUUCGUACCACUAGAGAGGUUGAUCCGCUCACCGAGAUCGGAAGAGCACACGU
B24: target 1 C2A,U3C (mixed)
RNA 1: CACCCGUGCAAAAAUGCAGGGGUCUAAAACUGAGCGGAUAACCUCUCUAUGG
RNA 2: GGGAAUGGAUCCACAUCUACGAAUUCGUACCAUAGAGAGGUUAUCCGCCAACCGAGAUCGGAAGAGCACACGU
B25: target 1 insU 3' of 22,insA 3' of 7 (mixed)
RNA 1: CACCCGUGCAAAAAUGCAGGGGUCUAAAACUGAGCGGAUAACCUCUCUAUGG
RNA 2: GGGAAUGGAUCCACAUCUACGAAUUCGUACUCAUAGAGAGGUUAUCACGCUCACCGAGAUCGGAAGAGCACACGU
B26: target 1 insU 3' of 18,insA 3' of 13 (mixed)
RNA 1: CACCCGUGCAAAAAUGCAGGGGUCUAAAACUGAGCGGAUAACCUCUCUAUGG
RNA 2: GGGAAUGGAUCCACAUCUACGAAUUCGUACCAUAUGAGAGAGUUAUCCGCUCACCGAGAUCGGAAGAGCACACGU
B27: target 1 insG 3' of 8,insG 3' of 4 (mixed)
RNA 1: CACCCGUGCAAAAAUGCAGGGGUCUAAAACUGAGCGGAUAACCUCUCUAUGG
RNA 2: GGGAAUGGAUCCACAUCUACGAAUUCGUACCAUAGAGAGGUUAUGCCGCGUCACCGAGAUCGGAAGAGCACACGU

The series concerns the target T1, EsCas13d, nuclease-dead. The series can be described thus: crRNA (strand 1, pre-loaded); Mg2+; 40 mM Tris-HCl pH 7.5, 150 mM NaCl, 6 mM MgCl2, 1 mM DTT, 0.1% Tween-20, 0.2 mg/ml BSA; 25 C; 10 min per concentration, then washed. Conditions: tags: His6-TwinStrep-SUMO cleaved; N-terminal SNAP kept (SNAP-Surface 488); label: 3' end held by stalled T7 RNA polymerase.
Molecule B1 gave a Kd of 6.7 ± 0.6 nM.

B2 yielded a Kd of 27 ± 5 nM.

Consider B3, for which the Kd was determined as 17.1 ± 1.2 nM.

B4 yielded a Kd of 9.7 ± 0.5 nM.

B5 displayed a dissociation constant (Kd) of 54 ± 10 nM.

With B6, the Kd is 66 ± 6 nM.

As to B7, the Kd was 13.9 ± 1.6 nM.

Consider B8, for which the Kd was 90 ± 40 nM.

B9 came in with a Kd of 16.5 ± 0.7 nM.

B10 showed a Kd of 13.4 ± 1.1 nM.

Take B11: the Kd was 50 ± 17 nM.

Regarding B12, the Kd was 10.8 ± 0.4 nM.

B13 returned a Kd of 12.3 ± 0.9 nM.

B14 had a Kd of 59 ± 11 nM.

In the case of B15, the affinity, expressed as Kd, was 10.5 ± 0.7 nM.

The molecule B16 registered a Kd of 29 ± 5 nM.

B17 yielded a Kd of 26.3 ± 1.6 nM.

Take B18: the dissociation constant Kd amounted to 16 ± 3 nM.

The molecule B19 yielded a Kd of 13.4 ± 1.2 nM.

B20 gave a dissociation constant (Kd) of 10.1 ± 0.8 nM.

B21: the Kd came out at 16.7 ± 1.2 nM.

The molecule B22 registered a Kd of 56 ± 5 nM.

The molecule B23 registered a dissociation constant (Kd) of 13.4 ± 2 nM.

B24 yielded a Kd of 13 ± 1 nM.

As to B25, the Kd turned out to be 21.9 ± 1.3 nM.

The molecule B26 came in with a Kd of 22.6 ± 2.4 nM.

In the case of B27, the Kd turned out to be 7.1 ± 0.4 nM.
